Holding throughout (type): cell-based
In one test the test system is human eosinophils. Description: eosinophil chemotaxis (ECA) test, bilayered 48-well chamber. As for the experimental part:
(§1) The eosinophil chemotaxis was measured by following the method described in the reference (Lymphokine Cytokine Res. 10, 481-486, 1991; Lymphokine Cytokine Res. 11, 331-338, 1992). Specifically, eosinophils of CD16- were purified from the peripheral blood of normal volunteers by discontinuous density-gradient method using Percoll (Pharmacia, Picataway, N.J.), and the following anti-CD16 immunoglobulin (DAKO. A. S, Glostrup, Denmark) magnetic antibody treatment. Purity of the obtained eosinophils was 97% or higher, and living cells were 95%. Chemotaxis was measured using a bilayered 48-well plate (NeuroProbe, Cabin John, Md.) mediated through a polyvinylpyrrolidone-free membrane (a standard pore size of 5 micron). Chemotactic factors in various concentration, and 0.5×10^6 to 1×10^6 cells/ml human eosinophils were placed on the lower and upper layers, respectively, and incubated under 5% carbon dioxide at 37° C. for 1 to 2 hours. Then the membrane separating two plates was removed, and eosinophils were stained by placing them in DiffQuick stain (Baxter Health Care, McGaw Park, Ill.) to count the eosinophils which were passing through the membrane under a microscope. All assays were conducted three times.
As a positive control, human C5a (Sigma, Saint Louis, Mo.), IL-5 (Genzyme, Cambridge, Mass.), RANTES (Genzyme), and eotaxin-1 (Seikagaku-Kogyo, Tokyo) were used. […]

The subject of the next test is neutrophils. Description: neutrophil chemotaxis test. The conditions noted are these: PBS negative control, IL-8 positive control; FIG. 6.
The next test has as its system lymphocytes. Description: lymphocyte chemotaxis test. Particulars: membrane pore size 3 μm; PBS negative control, lymphotactin positive control; FIG. 7. As for the experimental part: as §1
(§2) The similar experiments were conducted in regard to lymphocytes (FIG. 7) and monocytes (FIG. 8). Pore sizes of the membranes are 3 and 8 μm, respectively. […]

The next test relates to monocytes. Description: monocyte chemotaxis test. The conditions noted are these: membrane pore size 8 μm, PBS negative control, MCP-1 positive control, FIG. 8. Here is the method:
as §1, §2

“Also recorded” adds a separate entry of the source.

Consider 1 molecule from patent US20020034726A1, “Eosinophil chemotactic factor” (priority 1998, published 2002).

B1: ecalectin: eosinophil-specific chemotactic factor, 323 amino acid protein of SEQ ID NO: 2, similar to galectin-9; recombinant from Sf9 insect cells (protein, listed as Homo sapiens)
chain: MAFSSSQAPYLSPAVPFSGTIQGGLQDGLQITVNGTVLSSSGTRFAVNFQTGFSGNDIAFHFNPRFEDGGYVVCNTRQNGSWGPEERKTHMPFQKGMPFDLCFLVQSSDFKVMVNGILFVQYFHRVPFHRVDTISVNGSVQLSYISFQPPGVWPANPAPITQTVIHTVQSAPGQMFSTPAIPPMMYPHPAYPMPFITTILGGLYPSKSILLSGTVLPSAQRFHINLCSGNHIAFHLNPRFDENAVVRNTQIDNSWGSEERSLPRKMPFVRGQSFSVWILCEAHCLKVAVDGQHLFEYYHRLRNLPTINRLEVGGDIQLTHVQT
As for B1, in the test on human eosinophils (eosinophils versus neutrophils, lymphocytes, monocytes, FIGS. 5-8), the “specificity of chemotactic activity” value is recorded as “specific to eosinophils”. Also, in the test on human eosinophils (recombinant ecalectin purified from Sf9 insect cells, stained eosinophils passing through 5 micron membrane, FIG. 5), the eosinophil chemotactic activity entry is reported as “strong eosinophil chemotactic activity concentration-dependently; also recorded: concentration-dependent eosinophil chemotactic activity”. Moreover, the neutrophil chemotactic activity result in the test on neutrophils is on record as “no or little neutrophil chemotactic activity; also recorded: low or absent; also recorded: does not cause neutrophil chemotaxis”. For the same molecule, in the test on lymphocytes, the lymphocyte chemotactic activity result is “no chemotactic activity; also recorded: low or absent; also recorded: does not cause lymphocyte chemotaxis”. In addition, the monocyte chemotactic activity result with monocytes was “no chemotactic activity; also recorded: low or absent”; with monocytes (listed as recombinant ecalectin), “does not cause monocyte chemotaxis”.
